Experimental data from patent publication US11597951B2 (Lygos, Inc., priority 2018, dated 2023).

What was measured:
[1] = tested on: E. coli strain K12; assay: In vivo production of malonate in E. coli using S. cerevisiae EHD3 malonyl-CoA hydrolases; assay type: cell-based
Procedure: This example describes the host cells and culture conditions resulting in the in vivo production of malonate using a heterologous EHD3 malonyl-CoA hydrolase in an E. coli host cell. E. coli strain K12 was transformed with vectors containing wild-type EHD3, EHD3 (E124A), […], EHD3 (E124S), EHD3 (E124A, E308V) or an empty vector negative control. Transformants were streaked on LB agar plates (Cm^50, 2% glucose). Following overnight growth at 37° C., individual colonies were inoculated into 3 ml LB (Cm^50, 2% glucose) in a 48-well plate. Cultures were incubated on a plate shaker at 37° C. for 6 hours, at which point each culture was inoculated 1% v/v into M9 minimal medium supplemented with Cm^50 and a mixed carbon source (0.5% glycerol, 0.05% glucose, 0.2% lactose) in a 48-well plate. Cultures were incubated on a plate shaker at 30° C., and a 500 μL sample of the fermentation broth was removed for analysis after 48 hours incubation.
Samples were centrifuged (×6000 g, 1 min) and the supernatant analyzed for malonate quantification. Chemical standards were prepared in […] of water. The separation of malonate was conducted on a Shimadzu Prominence XR UPLC connected to a refractive index detector and UV detector monitoring 210 nm. Product separation was performed on a Bio-Rad Fermentation Monitoring column. The UPLC was programmed to run isocratically using 5 mM H2504 as the eluant with a flow rate of 600 μL per minute. 10 μL were injected per sample, and the sample plate temperature was held at 4° C. Malonate standards began eluting at […]. […] Malonate concentrations (mg/1) were calculated by comparison to a standard curve prepared from authentic malonate.

[2] = tested on: S. cerevisiae BY4741 yeast cells; assay: Production of malonate in yeast expressing various malonyl-CoA hydrolases; assay type: cell-based; conditions: S. cerevisiae BY4741, SD-Ura, 30° C., 140 h of fermentation; mean±S.D.; n=4
Text: Nucleic acids encoding various malonyl-CoA hydrolases provided by this disclosure [EHD3 (E124S), B9IZZ9-1, F0PNG8-1, H0NHL7, C3ALI3-1, Q81DR3-1, A4XS22-1, E2XN63-1, A5W8H3-1 and F6AA82-2] were amplified by PCR from plasmids using the primers listed in Table 4. The purified PCR products were cloned downstream of the TEF1 promoter and upstream of the CYC1 terminator in a shuttle vector containing an ampicillin resistance cassette, a PMB1 origin of replication, a CEN/ARS origin of replication and a URA3 selection marker. The resulting plasmids were transformed into E. coli competent host cells and selected on LB agar plates containing Cb^50. Following overnight incubation at 37° C., individual colonies were inoculated in 2 ml of LB-Cb^50 in a 48-well plate and grown for 5 h at 37° C. on a shaker before the plasmids were isolated and confirmed by sequencing.
S. cerevisiae BY4741 yeast cells were used as host for the vectors for expression of the various malonyl-CoA hydrolases. The plasmid vectors were individually introduced into the yeast host cells using standard procedures. […]
An individual colony for each transformant picked was inoculated into a 50 μl aliquot of SD-Ura medium in a 96-well plate. […] No malonate was detected in samples consisting of medium not inoculated with yeast cells. […]

B1: EHD3 (E124S) (protein, UniProt P28817 1-500, looked up, variant E124S)
Small ribosomal subunit …: MLRNTLKCAQLSSKYGFKTTTRTFMTTQPQLNVTDAPPVLFTVQDTARVITLNRPKKLNALNAEMSESMFKTLNEYAKSDTTNLVILKSSNRPRSFCAGGDVATVAIFNFNKEFAKSIKFFTDSYSLNFQIATYLKPIVTFMDGITMGGGVGLSIHTPFRIATENTKWAMPEMDIGFFPDVGSTFALPRIVTLANSNSQMALYLCLTGEVVTGADAYMLGLASHYVSSENLDALQKRLGEISPPFNNDPQSAYFFGMVNESIDEFVSPLPKDYVFKYSNEKLNVIEACFNLSKNGTIEDIMNNLRQYEGSAEGKAFAQEIKTKLLTKSPSSLQIALRLVQENSRDHIESAIKRDLYTAANMCMNQDSLVEFSEATKHKLIDKQRVPYPWTKKEQLFVSQLTSITSPKPSLPMSLLRNTSNVTWTQYPYHSKYQLPTEQEIAAYIEKRTNDDTGAKVTEREVLNHFANVIPSRRGKLGIQSLCKIVCERKCEEVNDGLRWK
- malonate production relative to wild-type EHD3 ([1]; E. coli K12, 48 hours): significant (p<0.05, t-test) increase
- Malonate Concentration ([1]; E. coli K12, M9 minimal medium, 30° C., 48 hours, mean±std dev, n=3): 82.3 ± 7.8 mg/L
- Malonate Peak Area [2]: 94,721 ± 8,115
